Experimental data as given in patent US20260167699A1 (Chugai, published 2026).

Biological target: T1, FcγRIIIa (human, UniProt P08637 17-208)
T1 construct: extracellular domain; also called 3a; FcγRIIIa extracellular domain
Assay: SPR (Biacore);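 also: antibody variants captured on an SPR sensor chip, with FcγRIIIa passed over as analyte in HBS-EP+ buffer at 25 °C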

T1 sequence (P08637 other isoform, or with tags, fused parts or gaps): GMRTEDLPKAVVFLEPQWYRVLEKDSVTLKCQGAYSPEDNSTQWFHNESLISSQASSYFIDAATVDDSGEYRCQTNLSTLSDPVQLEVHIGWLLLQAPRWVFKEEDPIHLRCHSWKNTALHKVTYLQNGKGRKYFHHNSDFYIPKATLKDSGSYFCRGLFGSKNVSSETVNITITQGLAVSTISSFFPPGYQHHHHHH

B1: GpH7-A5/GpH7-B3 variant I336_16H/GpL16-k0 (antibody, human IgG1, kappa)
heavy 1: not shown
heavy 2: not shown
light: DIVMTQSPLSLPVTPGEPASISCQASESLVHSNRNTYLHWYLQKPGQSPQLLIYKVSNRFSGVPDRFSGSGSGTDFTLKISRVEAEDVGVYYCSQNTHVPPTFGQGTKVEIERTVAAPSVFIFPPSDEQLKSGTASVVCLLNNFYPREAKVQWKVDNALQSGNSQESVTEQDSKDSTYSLSSTLTLSKADYEKHKVYACEVTHQGLSSPVTKSFNRGEC
notes: copies: 1 + 1 + 2
He/Con 3a: 92.8 % of GpH7-A5/GpH7-B3/GpL16-k0

B2: GpH7-A5/GpH7-B3 variant L234_04F/GpL16-k0 (antibody, human IgG1, kappa)
heavy 1: not shown
heavy 2: not shown
light: B1 light
notes: copies: 1 + 1 + 2
He/Con 3a: 114 % of GpH7-A5/GpH7-B3/GpL16-k0

B3: GpH7-A5/GpH7-B3 variant K334_02A/GpL16-k0 (antibody, human IgG1, kappa)
heavy 1: not shown
heavy 2: not shown
light: B1 light
notes: copies: 1 + 1 + 2
He/Con 3a: 152 % of GpH7-A5/GpH7-B3/GpL16-k0

B4: GpH7-A5/GpH7-B3 variant K334_10E/GpL16-k0 (antibody, human IgG1, kappa)
heavy 1: not shown
heavy 2: not shown
light: B1 light
notes: copies: 1 + 1 + 2
He/Con 3a: 186 % of GpH7-A5/GpH7-B3/GpL16-k0

B5: GpH7-A5/GpH7-B3 variant K326_01G/GpL16-k0 (antibody, human IgG1, kappa)
heavy 1: not shown
heavy 2: not shown
light: B1 light
notes: copies: 1 + 1 + 2
He/Con 3a: 114 % of GpH7-A5/GpH7-B3/GpL16-k0

B6: GpH7-A5/GpH7-B3 variant K326_08L/GpL16-k0 (antibody, human IgG1, kappa)
heavy 1: not shown
heavy 2: not shown
light: B1 light
notes: copies: 1 + 1 + 2
He/Con 3a: 126 % of GpH7-A5/GpH7-B3/GpL16-k0

B7: GpH7-A5/GpH7-B3 variant L234_07I/GpL16-k0 (antibody, human IgG1, kappa)
heavy 1: not shown
heavy 2: not shown
light: B1 light
notes: copies: 1 + 1 + 2
He/Con 3a: 99.5 % of GpH7-A5/GpH7-B3/GpL16-k0

B8: GpH7-A5/GpH7-B3 variant K334_04F/GpL16-k0 (antibody, human IgG1, kappa)
heavy 1: not shown
heavy 2: not shown
light: B1 light
notes: copies: 1 + 1 + 2
He/Con 3a: 152 % of GpH7-A5/GpH7-B3/GpL16-k0

B9: GpH7-A5/GpH7-B3 variant K334_08L/GpL16-k0 (antibody, human IgG1, kappa)
heavy 1: not shown
heavy 2: not shown
light: B1 light
notes: copies: 1 + 1 + 2
He/Con 3a: 148 % of GpH7-A5/GpH7-B3/GpL16-k0

B10: GpH7-A5/GpH7-B3 variant K334_05P/GpL16-k0 (antibody, human IgG1, kappa)
heavy 1: not shown
heavy 2: not shown
light: B1 light
notes: copies: 1 + 1 + 2
He/Con 3a: 138 % of GpH7-A5/GpH7-B3/GpL16-k0

B11: GpH7-A5/GpH7-B3 variant L234_14T/GpL16-k0 (antibody, human IgG1, kappa)
heavy 1: not shown
heavy 2: not shown
light: B1 light
notes: copies: 1 + 1 + 2
He/Con 3a: 69.8 % of GpH7-A5/GpH7-B3/GpL16-k0

B12: GpH7-A5/GpH7-B3 variant K334_07I/GpL16-k0 (antibody, human IgG1, kappa)
heavy 1: not shown
heavy 2: not shown
light: B1 light
notes: copies: 1 + 1 + 2
He/Con 3a: 156 % of GpH7-A5/GpH7-B3/GpL16-k0

B13: GpH7-A5/GpH7-B3 variant K326_12R/GpL16-k0 (antibody, human IgG1, kappa)
heavy 1: not shown
heavy 2: not shown
light: B1 light
notes: copies: 1 + 1 + 2
He/Con 3a: 101 % of GpH7-A5/GpH7-B3/GpL16-k0

B14: GpH7-A5/GpH7-B3 variant K334_13S/GpL16-k0 (antibody, human IgG1, kappa)
heavy 1: not shown
heavy 2: not shown
light: B1 light
notes: copies: 1 + 1 + 2
He/Con 3a: 150 % of GpH7-A5/GpH7-B3/GpL16-k0

B15: GpH7-A5/GpH7-B3 variant K326_07I/GpL16-k0 (antibody, human IgG1, kappa)
heavy 1: not shown
heavy 2: not shown
light: B1 light
notes: copies: 1 + 1 + 2
He/Con 3a: 153 % of GpH7-A5/GpH7-B3/GpL16-k0

B16: GpH7-A5/GpH7-B3 variant L235_01G/GpL16-k0 (antibody, human IgG1, kappa)
heavy 1: not shown
heavy 2: not shown
light: B1 light
notes: copies: 1 + 1 + 2
He/Con 3a: 56.7 % of GpH7-A5/GpH7-B3/GpL16-k0

B17: GpH7-A5/GpH7-B3 variant K326_15Y/GpL16-k0 (antibody, human IgG1, kappa)
heavy 1: not shown
heavy 2: not shown
light: B1 light
notes: copies: 1 + 1 + 2
He/Con 3a: 124 % of GpH7-A5/GpH7-B3/GpL16-k0

B18: GpH7-A5/GpH7-B3 variant K326_19Q/GpL16-k0 (antibody, human IgG1, kappa)
heavy 1: not shown
heavy 2: not shown
light: B1 light
notes: copies: 1 + 1 + 2
He/Con 3a: 117 % of GpH7-A5/GpH7-B3/GpL16-k0

B19: GpH7-A5/GpH7-B3 variant L234_20W/GpL16-k0 (antibody, human IgG1, kappa)
heavy 1: not shown
heavy 2: not shown
light: B1 light
notes: copies: 1 + 1 + 2
He/Con 3a: 103 % of GpH7-A5/GpH7-B3/GpL16-k0

B20: GpH7-A5/GpH7-B3 variant K326_16H/GpL16-k0 (antibody, human IgG1, kappa)
heavy 1: not shown
heavy 2: not shown
light: B1 light
notes: copies: 1 + 1 + 2
He/Con 3a: 106 % of GpH7-A5/GpH7-B3/GpL16-k0

B21: GpH7-A5/GpH7-B3 variant K334_16H/GpL16-k0 (antibody, human IgG1, kappa)
heavy 1: not shown
heavy 2: not shown
light: B1 light
notes: copies: 1 + 1 + 2
He/Con 3a: 138 % of GpH7-A5/GpH7-B3/GpL16-k0

B22: GpH7-A5/GpH7-B3 variant K326_20W/GpL16-k0 (antibody, human IgG1, kappa)
heavy 1: not shown
heavy 2: not shown
light: B1 light
notes: copies: 1 + 1 + 2
He/Con 3a: 93.7 % of GpH7-A5/GpH7-B3/GpL16-k0

B23: GpH7-A5/GpH7-B3 variant I336_18N/GpL16-k0 (antibody, human IgG1, kappa)
heavy 1: not shown
heavy 2: not shown
light: B1 light
notes: copies: 1 + 1 + 2
He/Con 3a: 99.4 % of GpH7-A5/GpH7-B3/GpL16-k0

B24: GpH7-A5/GpH7-B3 variant K326_03V/GpL16-k0 (antibody, human IgG1, kappa)
heavy 1: not shown
heavy 2: not shown
light: B1 light
notes: copies: 1 + 1 + 2
He/Con 3a: 135 % of GpH7-A5/GpH7-B3/GpL16-k0

B25: GpH7-A5/GpH7-B3 variant L234_01G/GpL16-k0 (antibody, human IgG1, kappa)
heavy 1: not shown
heavy 2: not shown
light: B1 light
notes: copies: 1 + 1 + 2
He/Con 3a: 55.8 % of GpH7-A5/GpH7-B3/GpL16-k0

B26: GpH7-A5/GpH7-B3 variant K334_15Y/GpL16-k0 (antibody, human IgG1, kappa)
heavy 1: not shown
heavy 2: not shown
light: B1 light
notes: copies: 1 + 1 + 2
He/Con 3a: 145 % of GpH7-A5/GpH7-B3/GpL16-k0

B27: GpH7-A5/GpH7-B3 variant L235_02A/GpL16-k0 (antibody, human IgG1, kappa)
heavy 1: not shown
heavy 2: not shown
light: B1 light
notes: copies: 1 + 1 + 2
He/Con 3a: 72 % of GpH7-A5/GpH7-B3/GpL16-k0

B28: GpH7-A5/GpH7-B3 variant I336_19Q/GpL16-k0 (antibody, human IgG1, kappa)
heavy 1: not shown
heavy 2: not shown
light: B1 light
notes: copies: 1 + 1 + 2
He/Con 3a: 88.4 % of GpH7-A5/GpH7-B3/GpL16-k0
